The source of these data is patent publication US20130122013A1 (Eli Lilly, published 2013).

In experiment [1] the target is T1, human FPN1 C-terminally fused with GFP (human, UniProt Q9NP59 1-571, GFP reporter fused to the C-terminus ("FPN1 is C-terminally fused with GFP"). It is left out because the patent gives no letters for it.).
T1 sequence: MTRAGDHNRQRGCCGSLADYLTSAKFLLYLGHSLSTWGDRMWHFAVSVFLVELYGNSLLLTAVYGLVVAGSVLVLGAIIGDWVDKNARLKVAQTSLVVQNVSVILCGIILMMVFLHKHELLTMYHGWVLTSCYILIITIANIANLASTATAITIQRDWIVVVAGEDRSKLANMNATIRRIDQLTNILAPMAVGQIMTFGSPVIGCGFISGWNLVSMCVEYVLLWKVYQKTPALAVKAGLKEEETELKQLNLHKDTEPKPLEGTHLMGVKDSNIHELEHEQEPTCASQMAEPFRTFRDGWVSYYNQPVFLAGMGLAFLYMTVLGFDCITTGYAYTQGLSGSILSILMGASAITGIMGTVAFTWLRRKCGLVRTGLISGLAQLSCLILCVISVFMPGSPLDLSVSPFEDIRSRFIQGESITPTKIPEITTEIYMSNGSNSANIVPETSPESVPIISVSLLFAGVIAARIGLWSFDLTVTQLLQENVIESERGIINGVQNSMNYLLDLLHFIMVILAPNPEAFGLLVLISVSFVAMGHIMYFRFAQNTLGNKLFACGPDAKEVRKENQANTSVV
Nature of the experiment: cell-based or functional assay.

In experiment [2] the target is T1, human FPN1 C-terminally fused with GFP. Kind of experiment: cell-based or functional assay. The source holds these as a separate data set.
The target is the same in experiment [3]. Nature of the experiment: SPR, Biacore T100, 25 C, 1:1 model; FPN1-GFP captured from cell lysate on rabbit anti-GFP antibody, Mab injected.
Protocol: (§1) The affinities of FPN1 binding Fabs and Mabs may be determined on Biacore T100 and using 1:1 binding model in the Biacore T100 evaluation software (BIAcore® AB, Upsala, Sweden). […] FPN1 is C-terminally fused with GFP. Expression of FPN1-GFP is induced by 1-10 ng/mL doxycycline for 1-24 hours. Induced cells are harvested by scraping off from flasks and then washed with 1×PBS. Cell pellets can be stored at −80° C. before use. About five million induced cells are resuspended in 10 mM phosphate buffer with 0.2% Tween-20 and protease inhibitors, e.g., Complete™ Protease Inhibitor Cocktail Tablet (Roche Diagnostics Corp., Indianapolis, Ind.). Three cycles of freeze/thaw/sonication are used to lyse the cells. The lysate is diluted two-fold with Biacore running buffer and centrifuged to remove debris.
(§2) On Biacore T100, rabbit anti-GFP antibody or goat anti-GFP antibody is immobilized onto flow cell 1 to 4 of a CMS chip at 5000-15000 Rus. FPN1-GFP is captured onto flow cell 2, 3, or 4 from the lysate of induced cells. Flow cell 1 is used as reference. Then all flow cells are injected with different concentrations of antibodies to evaluate the binding and kinetics.
The target of another experiment is T2, peptide FpnE3a (human).
T2 peptide: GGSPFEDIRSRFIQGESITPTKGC
Kind of experiment: dot blot: peptide spotted on nitrocellulose, probed with Mab 34A9, IR700-labeled goat anti-mouse detection.

For another experiment, the target named is T3, peptide 060719Z (human).
T3 peptide: GGSPFEDIRSRFIQGC
Described as above.

In the next experiment the target is T4, peptide 0708L4C (human).
T4 peptide: GGEDIRSRFIQGESITGC
Described as above.

In a further experiment the target is T5, peptide 0708L4D (human).
T5 peptide: GGRSRFIQGESITPTKGC
Described as above.

Experiment [4] deals with T1, human FPN1 C-terminally fused with GFP. Nature of the experiment: SPR, Biacore T100, 37 C; KD of Fab 1G9 against KD of Fab 34A9 (Table 4(a)). A general note: In SPR one partner is held on a chip, and binding of the other changes the refractive index at the surface.
Description: The affinities of FPN1 binding Fabs and Mabs may be determined on Biacore T100 and using 1:1 binding model in the Biacore T100 evaluation software (BIAcore® AB, Upsala, Sweden). Briefly, the T-REx system, a commercially available tetracycline-regulated expression system without viral transactivators (Invitrogen, Carlsbad, Calif.) is used for stable cell line generation in T-Rex HEK 293 cells. All growth conditions are described in the T-REx manual provided by Invitrogen. FPN1 is C-terminally fused with GFP. Expression of FPN1-GFP is induced by 1-10 ng/mL doxycycline for 1-24 hours. Induced cells are harvested by scraping off from flasks and then washed with 1×PBS. Cell pellets can be stored at −80° C. before use. About five million induced cells are resuspended in 10 mM phosphate buffer with 0.2% Tween-20 and protease inhibitors, e.g., Complete™ Protease Inhibitor Cocktail Tablet (Roche Diagnostics Corp., Indianapolis, Ind.). Three cycles of freeze/thaw/sonication are used to lyse the cells. The lysate is diluted two-fold with Biacore running buffer and centrifuged to remove debris.
On Biacore T100, rabbit anti-GFP antibody or goat anti-GFP antibody is immobilized onto flow cell 1 to 4 of a CMS chip at 5000-15000 Rus. FPN1-GFP is captured onto flow cell 2, 3, or 4 from the lysate of induced cells. Flow cell 1 is used as reference. […]
The target is the same in experiment [5]. Nature of the experiment: SPR, Biacore T100, 37 C, 1:1 model; FPN1-GFP captured from cell lysate on rabbit anti-GFP antibody, Fab injected.
Protocol: as §1, §2
Experiment [6] has the same target. Kind of experiment: SPR, Biacore T100, 37 C, 1:1 model; FPN1-GFP captured from cell lysate on goat anti-GFP antibody, Fab injected; n = 4.
Protocol: as §1, §2
Experiment [7] deals with T6, human ferroportin 1 (human, UniProt Q9NP59 1-571).
T6 sequence: T1 sequence
Kind of experiment: cell-based or functional assay.

For experiment [8], the target named is T6, human ferroportin 1. Kind of experiment: inhibition of binding of 30 nM biotinylated hepcidin to FPN/293 cells, ELISA of lysate. (An ELISA detects its analyte on a solid surface through an enzyme-linked reagent.)
Protocol: (§3) Next, 65 μL of lysing buffer (0.5% Triton X-100, 10 mM EDTA) are added to all the wells and the plates are shaken for 10 minutes. Next, 50 μL of the solution in each well is transferred to individual wells of a streptavidin coated Greiner microtiter plate (60 μL of 2 μg/mL streptavidin (Sigma, St. Louis, Mo.; catalog no. S4762) in PBS, incubated at 4° C. overnight, washed 2 times (0.1% Tween 20, TBS), blocked with casein/PBS), and then incubated for one hour at room temperature. […] After incubating one hour at room temperature, the plate is washed 4× and 50 μL of OPD substrate (Sigma; catalog no. P6912) is added. The reaction is stopped with 100 μL 1 N HCl after 4 minutes. Absorbance at 490 nm (A₄₉₀) is read using an appropriate ELISA plate reader.
Experiment [9] deals with T1, human FPN1 C-terminally fused with GFP. Nature of the experiment: SPR, Biacore T100, 37 C, 1:1 model; FPN1-GFP captured from cell lysate on rabbit anti-GFP antibody, Mab injected.
Protocol: as §1, §2
In experiment [10] the target is T6, human ferroportin 1. Nature of the experiment: inhibition of binding of 30 nM biotinylated hepcidin to FPN/293 cells, ELISA of lysate; antibody at 125 nM; mean.
Protocol: as §3
In experiment [11] the target is T6, human ferroportin 1. Nature of the experiment: inhibition of binding of 30 nM biotinylated hepcidin to FPN/293 cells, ELISA of lysate; antibody at 500 nM; mean.
Protocol: as §3
For experiment [12], the target named is T6, human ferroportin 1. Kind of experiment: inhibition of binding of 30 nM biotinylated hepcidin to FPN/293 cells, ELISA of lysate; antibody at 7.8 nM; mean.
Protocol: as §3
Experiment [13] deals with T6, human ferroportin 1. Nature of the experiment: inhibition of binding of 30 nM biotinylated hepcidin to FPN/293 cells, ELISA of lysate; antibody at 2000 nM; mean.
Protocol: as §3
For experiment [14], the target named is T6, human ferroportin 1. Nature of the experiment: inhibition of binding of 30 nM biotinylated hepcidin to FPN/293 cells, ELISA of lysate; antibody at 31.25 nM; mean.
Protocol: as §3

Numbering of substitutions follows the chain as printed.

Protocol for peptide 060719Z: (§4) For each peptide, 3 μl of 1-5 μg/mL peptide is spotted onto a piece of nitrocellulose membrane and air dried. The membrane is blocked with blocking buffer (e.g., PBS containing 1% BSA), then incubated with 3-5 μg/mL FPN1 antibody in blocking buffer at room temperature for an hour. The membrane is washed three times, 5 min each, with 1×PBST (10 mM sodium phosphate, 150 mM NaCl, 0.1% Tween-20, pH 7.4) before it is incubated with IR700-labeled-Goat-anti-Mouse antibody according to manufacturer's protocol (LiCor, Inc; Lincoln, Nebr.). The membrane is washed three times, five minutes each, with 1×PBST, is imaged on Odyssey imaging system and Odyssey software (LiCor, Inc).
Protocol for peptide 0708L4C: as §4
Protocol for peptide 0708L4D: as §4
Protocol for peptide FpnE3a: as §4

B1: Mab 34A9 (antibody, mouse IgG1, kappa, V domains shown)
VH: QVQLKQSGAELVRPGTSVKVSCKASGYAFTNFLIEWLKQRPGQGLEWIGTINPETGGTKYNEKFRGKATLTADKSSSTAYMQLNSLTSDDSAVYFCVREFFDYWGQGTSLTVSS
VL: ETTVTQSPSYLAASPGETITINCRASKSISKYLAWFQEKPGKTNKLLIYAGSTLHSGIPSRFSGSGSGTDFTLTISSLEPEDFAMYYCQQHNEYPYTFGGGTKLELKR
notes: Mouse monoclonal antibody against human FPN1; also called mouse 34A9; mouse Mab 34A9
As usually defined, the Kd is the concentration at which binding is half-saturated. For orientation: koff means the first-order rate constant of dissociation. In general, kon refers to the rate constant with which the complex forms. Lower therefore signals slower complex formation. For B1, in [1], the “Percent (%) Inhibition of Mature Human Hepcidin-induced Internalization and Degradation, Mab at 7.4 nM” value was determined as 4.8%; the “Percent (%) Inhibition of Mature Human Hepcidin-induced Internalization and Degradation, Mab at 22 nM” value is 14.1%; the “Percent (%) Inhibition of Mature Human Hepcidin-induced Internalization and Degradation, Mab at 67 nM” value was found to be 23.6%; the “Percent (%) Inhibition of Mature Human Hepcidin-induced Internalization and Degradation, Mab at 200 nM” value was 30.8%. Also, the “Percent (%) Inhibition of Mature Human Hepcidin-induced Internalization and Degradation, Mab at 600 nM” value in experiment [1] came to 39%. In experiment [2], the “Relative IC50 of inhibition of hepcidin-25-induced internalization and degradation of FPN1-GFP” value came to 58.9 nM; the “Top % Inhibition of hepcidin-25-induced internalization and degradation of FPN1-GFP” value was 55.2%. Further, in [3], the Kd amounted to 1.18 nM, the koff came to 8.16e-05 s⁻¹ and the kon is 69000 M⁻¹ s⁻¹. The binding result with peptide FpnE3a is given as “binds”. In the experiment with peptide 060719Z, the binding result was “binds”. The binding result in the experiment with peptide 0708L4C was “binds”. In the experiment with peptide 0708L4D, the binding result was “binds”.

B2: Fab 1G9 (Fab, V domains shown)
VH: B1 VH with N31S, E54R
VL: ETTVTQSPSYLAASPGETITINCRASKSISKYLAWFQEKPGKTNKLLIYAGSKLHSGIPSRFSGSGSGTDFTLTISSLEPEDFAMYYCFQHNEYPYTFGGGTKLELK
notes: also called mouse 1G9; mouse Fab 1G9
As to B2, in [4], the “fold improvement in binding affinity over mouse Fab 34A9” value is about 5 fold. In experiment [5], this molecule came in with a dissociation constant Kd of 7.71 nM, a koff of 0.000897 s⁻¹ and a kon of 127000 M⁻¹ s⁻¹. In [6], this molecule had a Kd of 2.9 nM, a koff of 0.000497 s⁻¹ and an association rate constant (kon) of 173000 M⁻¹ s⁻¹.

B3: Mab 3D8 (antibody, human IgG4 S228P, kappa, F234A L235A, V domains shown)
VH: QVQLVQSGAEVKKPGSSVKVSCKASGYAFTSFLIEWVRQAPGQGLEWMGTSNPRTGGTKYKEKFRGRVTITADKSTSTAYMELSSLRSEDTAVYYCAREFFDYWGQGTTVTVSS
VL: DIQMTQSPSSLSASVGDRVTITCRASKSISKYTAWYQQKPGKAPKLLIYAGSKLHSGVPSRFSGSGSGTDFTLTISSLQPEDFATYYCQQHNEYPYTFGGGTKVEIKR
notes: Humanized form of mouse 1G9 with human heavy chain framework VH1-69 and light chain framework O2; also called human 3D8
What is called IC50 is the concentration needed to halve the response being measured. Higher therefore signals weaker potency in that assay. As usually defined, the % Inhibition is the change of the read-out against control, counted positive when it falls. For B3, in experiment [1], the “Percent (%) Inhibition of Mature Human Hepcidin-induced Internalization and Degradation, Mab at 7.4 nM” value was 28.1%; the “Percent (%) Inhibition of Mature Human Hepcidin-induced Internalization and Degradation, Mab at 22 nM” value is 50.2%; the “Percent (%) Inhibition of Mature Human Hepcidin-induced Internalization and Degradation, Mab at 67 nM” value is 55.7%; the “Percent (%) Inhibition of Mature Human Hepcidin-induced Internalization and Degradation, Mab at 200 nM” value was 63.8%. In addition, in [1], the “Percent (%) Inhibition of Mature Human Hepcidin-induced Internalization and Degradation, Mab at 600 nM” value was 66.4%. In experiment [2], the “Absolute IC50 of inhibition of hepcidin-25-induced internalization and degradation of FPN1-GFP” value is 13.7 nM; the “Relative IC50 of inhibition of hepcidin-25-induced internalization and degradation of FPN1-GFP” value was 10.2 nM; the “Top % Inhibition of hepcidin-25-induced internalization and degradation of FPN1-GFP” value stood at 86.8%. Also, in the experiment with human ferroportin 1 [7], the “EC50 of inhibition of mature hepcidin induced increase in cellular ferritin, Caco-2 cells” value came to 360 nM; the “Percentage inhibition of mature hepcidin induced increase in cellular ferritin, Caco-2 cells, Mab at 2.22E-7 M” value came to 25.2%; the “Percentage inhibition of mature hepcidin induced increase in cellular ferritin, Caco-2 cells, Mab at 2.47E-8 M” value was 3.4%; the “Percentage inhibition of mature hepcidin induced increase in cellular ferritin, Caco-2 cells, Mab at 2.7E-9 M” value turned out to be 10.6%. In the experiment with human ferroportin 1 [7], the “Percentage inhibition of mature hepcidin induced increase in cellular ferritin, Caco-2 cells, Mab at 3.0E-10 M” value was 7.3%; the “Percentage inhibition of mature hepcidin induced increase in cellular ferritin, Caco-2 cells, Mab at 6.67E-7 M” value is 29.8%; the “Percentage inhibition of mature hepcidin induced increase in cellular ferritin, Caco-2 cells, Mab at 7.4E-8 M” value stood at 12%; the “Percentage inhibition of mature hepcidin induced increase in cellular ferritin, Caco-2 cells, Mab at 8.0E-9 M” value was 14.9%. For the same molecule, the “Percentage inhibition of mature hepcidin induced increase in cellular ferritin, Caco-2 cells, Mab at 9.0E-10 M” value in the experiment with human ferroportin 1 [7] is 8.6%. In addition, the IC50 with human ferroportin 1 [8] is about 400 nM. For the same molecule, in experiment [9], binding was put at a Kd of 3.37 nM, the dissociation rate constant (koff) was found to be 0.0011 s⁻¹ and the kon was 325000 M⁻¹ s⁻¹. For the same molecule, the “% Inhibition” value in the experiment with human ferroportin 1 [10] worked out at 21.8%. Further, the “% Inhibition” value with human ferroportin 1 [11] amounted to 64.7%. The “% Inhibition” value with human ferroportin 1 [12] was -2.8%. For the same molecule, the “% Inhibition” value with human ferroportin 1 [13] is 54.7%. Also, the “% Inhibition” value in the experiment with human ferroportin 1 [14] was found to be 4%.
